T1: biotinylated CD3 epsilon epitope peptide (UniProt P07766 22-48, biotinylated)
T1 chain: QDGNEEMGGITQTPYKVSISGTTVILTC


Columns and labels:
[1] = target: T2, biotin-labeled human CD137 fused to human IgG1 Fc fragment (human, biotin-labeled); assay: bead ELISA, IgG on biotin-human CD137-Fc on streptavidin beads, no free CD3e
T2 construct: Immobilised on streptavidin beads through biotin; also called human CD137-Fc; biotin-human CD137-Fc

[2] = target: T2, biotin-labeled human CD137 fused to …; assay: competitive bead ELISA, IgG on biotin-human CD137-Fc, competitor free CD3 epsilon peptide 125 pmol/well
[3] = target: T2, biotin-labeled human CD137 fused to …; assay: competitive bead ELISA, decrease of signal on biotin-human CD137-Fc with 125 pmol/well free CD3 epsilon peptide against 0
[4] = target: T1, biotinylated CD3 epsilon epitope peptide; assay: SPR (Biacore); biotinylated CD3 epsilon epitope peptide on chip via streptavidin, antibody as analyte
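Wherever ELISA signal, free CD3e 125 pmol/well is given: bead ELISA on streptavidin-coated magnetic beads, with the signal read as well fluorescence 2 min after APS-5 addition.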

Row | Binder | ELISA signal, free CD3e 0 pmol/well [1] | ELISA signal, free CD3e 125 pmol/well [2] | Signal decrease [3] | Kd [4]
1 | Du115/DUL008 (antibody, V domains shown, Human IgG1 format; also called dBBDu_115 with L008) VH: QVQLVESGGGLVQPGRSLRLSCAASGFTFSNAWMHWVRQAPGKGLEWVAQIKDKANSYNTYYAPSVKGRFTISRDDSKNSIYLQMNSLKTEDTAVYYCRYVHYGSSYGFLFAGYGVDAWGQGTTVTVSS VL: DIVMTQSPLSLPVTPGEPASISCQSSEELLHANRKTYLHWYQQKPGQAPRLLIYKVQNRFSGVPDRFSGSGSGTDFTLKISRVEAEDVGVYYCAQGTATPFTFGQGTKLEIK | 86200 | 2620 | 97% | –
2 | NNS6f17 (CE115HA340 with WGEGVV inserted between Kabat positions 99 and 100), one-arm antibody (antibody) chain 1: QVQLVESGGGLVQPGRSLRLSCAASGFTFSNAWMHWVRQAPGKGLEWVAQIKDKSNNYATYYAESVKGRFTISRDDSKNSIYLQMNSLKTEDTAVYYCRYVHYAAWGEGVVYYGVDAWGQGTTVTVSSASTKGPSVFPLAPSSKSTSGGTAALGCLVKDYFPEPVTVSWNSGALTSGVHTFPAVLQSSGLYSLSSVVTVPSSSLGTQTYICNVNHKPSNTKVDKKVEPKSCDKTHTCPPCPAPEAAGGPSVFLFPPKPKDTLMISRTPEVTCVVVDVSHEDPEVKFNWYVDGVEVHNAKTKPREEQYASTYRVVSVLTVLHQDWLNGKEYKCKVSNKALPAPIEKTISKAKGQPREPQVYTLPPSRCELTKNQVSLSCAVKGFYPSDIAVEWESNGQPENNYKTTPPVLDSDGSFFLVSKLTVDKSRWQQGNVFSCSVMHEALHNHYTQKSLSLSPDYKDDDDK chain 2: EPKSSDKTHTCPPCPAPELLGGPSVFLFPPKPKDTLMISRTPEVTCVVVDVSHEDPEVKFNWYVDGVEVHNAKTKPREEQYNSTYRVVSVLTVLHQDWLNGKEYKCKVSNKALPAPIEKTISKAKGQPREPQVCTLPPSRDELTKNQVSLWCLVKGFYPSDIAVEWESNGQPENNYKTTPPVLDSDGSFFLYSKLTVDKSRWQQGNVFSCSVMHEALHNRYTQKSLSLSP chain 3: DIVMTQSPLSLPVTPGEPASISCRSSQSLVHSNRNTYLHWYQQKPGQAPRLLIYKVSNRFSGVPDRFSGSGSGTDFTLKISRVEAEDVGVYYCGQGTQVPYTFGQGTKLEIKRTVAAPSVFIFPPSDEQLKSGTASVVCLLNNFYPREAKVQWKVDNALQSGNSQESVTEQDSKDSTYSLSSTLTLSKADYEKHKVYACEVTHQGLSSPVTKSFNRGEC | – | – | – | 74 nM
3 | NNS6f47 (CE115HA340 with HFMWWG inserted between Kabat positions 99 and 100), one-arm antibody (antibody) chain 1: QVQLVESGGGLVQPGRSLRLSCAASGFTFSNAWMHWVRQAPGKGLEWVAQIKDKSNNYATYYAESVKGRFTISRDDSKNSIYLQMNSLKTEDTAVYYCRYVHYAAHFMWWGYYGVDAWGQGTTVTVSSASTKGPSVFPLAPSSKSTSGGTAALGCLVKDYFPEPVTVSWNSGALTSGVHTFPAVLQSSGLYSLSSVVTVPSSSLGTQTYICNVNHKPSNTKVDKKVEPKSCDKTHTCPPCPAPEAAGGPSVFLFPPKPKDTLMISRTPEVTCVVVDVSHEDPEVKFNWYVDGVEVHNAKTKPREEQYASTYRVVSVLTVLHQDWLNGKEYKCKVSNKALPAPIEKTISKAKGQPREPQVYTLPPSRCELTKNQVSLSCAVKGFYPSDIAVEWESNGQPENNYKTTPPVLDSDGSFFLVSKLTVDKSRWQQGNVFSCSVMHEALHNHYTQKSLSLSPDYKDDDDK chain 2: EPKSSDKTHTCPPCPAPELLGGPSVFLFPPKPKDTLMISRTPEVTCVVVDVSHEDPEVKFNWYVDGVEVHNAKTKPREEQYNSTYRVVSVLTVLHQDWLNGKEYKCKVSNKALPAPIEKTISKAKGQPREPQVCTLPPSRDELTKNQVSLWCLVKGFYPSDIAVEWESNGQPENNYKTTPPVLDSDGSFFLYSKLTVDKSRWQQGNVFSCSVMHEALHNRYTQKSLSLSP chain 3: DIVMTQSPLSLPVTPGEPASISCRSSQSLVHSNRNTYLHWYQQKPGQAPRLLIYKVSNRFSGVPDRFSGSGSGTDFTLKISRVEAEDVGVYYCGQGTQVPYTFGQGTKLEIKRTVAAPSVFIFPPSDEQLKSGTASVVCLLNNFYPREAKVQWKVDNALQSGNSQESVTEQDSKDSTYSLSSTLTLSKADYEKHKVYACEVTHQGLSSPVTKSFNRGEC | – | – | – | 31 nM
4 | NNS6f27 (CE115HA340 with VWGSVW inserted between Kabat positions 99 and 100), one-arm antibody (antibody) chain 1: QVQLVESGGGLVQPGRSLRLSCAASGFTFSNAWMHWVRQAPGKGLEWVAQIKDKSNNYATYYAESVKGRFTISRDDSKNSIYLQMNSLKTEDTAVYYCRYVHYAAVWGSVWYYGVDAWGQGTTVTVSSASTKGPSVFPLAPSSKSTSGGTAALGCLVKDYFPEPVTVSWNSGALTSGVHTFPAVLQSSGLYSLSSVVTVPSSSLGTQTYICNVNHKPSNTKVDKKVEPKSCDKTHTCPPCPAPEAAGGPSVFLFPPKPKDTLMISRTPEVTCVVVDVSHEDPEVKFNWYVDGVEVHNAKTKPREEQYASTYRVVSVLTVLHQDWLNGKEYKCKVSNKALPAPIEKTISKAKGQPREPQVYTLPPSRCELTKNQVSLSCAVKGFYPSDIAVEWESNGQPENNYKTTPPVLDSDGSFFLVSKLTVDKSRWQQGNVFSCSVMHEALHNHYTQKSLSLSPDYKDDDDK chain 2: EPKSSDKTHTCPPCPAPELLGGPSVFLFPPKPKDTLMISRTPEVTCVVVDVSHEDPEVKFNWYVDGVEVHNAKTKPREEQYNSTYRVVSVLTVLHQDWLNGKEYKCKVSNKALPAPIEKTISKAKGQPREPQVCTLPPSRDELTKNQVSLWCLVKGFYPSDIAVEWESNGQPENNYKTTPPVLDSDGSFFLYSKLTVDKSRWQQGNVFSCSVMHEALHNRYTQKSLSLSP chain 3: DIVMTQSPLSLPVTPGEPASISCRSSQSLVHSNRNTYLHWYQQKPGQAPRLLIYKVSNRFSGVPDRFSGSGSGTDFTLKISRVEAEDVGVYYCGQGTQVPYTFGQGTKLEIKRTVAAPSVFIFPPSDEQLKSGTASVVCLLNNFYPREAKVQWKVDNALQSGNSQESVTEQDSKDSTYSLSSTLTLSKADYEKHKVYACEVTHQGLSSPVTKSFNRGEC | – | – | – | 38 nM
5 | NNS6f29 (CE115HA340 with IYYPTN inserted between Kabat positions 99 and 100), one-arm antibody (antibody) chain 1: QVQLVESGGGLVQPGRSLRLSCAASGFTFSNAWMHWVRQAPGKGLEWVAQIKDKSNNYATYYAESVKGRFTISRDDSKNSIYLQMNSLKTEDTAVYYCRYVHYAAIYYPTNYYGVDAWGQGTTVTVSSASTKGPSVFPLAPSSKSTSGGTAALGCLVKDYFPEPVTVSWNSGALTSGVHTFPAVLQSSGLYSLSSVVTVPSSSLGTQTYICNVNHKPSNTKVDKKVEPKSCDKTHTCPPCPAPEAAGGPSVFLFPPKPKDTLMISRTPEVTCVVVDVSHEDPEVKFNWYVDGVEVHNAKTKPREEQYASTYRVVSVLTVLHQDWLNGKEYKCKVSNKALPAPIEKTISKAKGQPREPQVYTLPPSRCELTKNQVSLSCAVKGFYPSDIAVEWESNGQPENNYKTTPPVLDSDGSFFLVSKLTVDKSRWQQGNVFSCSVMHEALHNHYTQKSLSLSPDYKDDDDK chain 2: EPKSSDKTHTCPPCPAPELLGGPSVFLFPPKPKDTLMISRTPEVTCVVVDVSHEDPEVKFNWYVDGVEVHNAKTKPREEQYNSTYRVVSVLTVLHQDWLNGKEYKCKVSNKALPAPIEKTISKAKGQPREPQVCTLPPSRDELTKNQVSLWCLVKGFYPSDIAVEWESNGQPENNYKTTPPVLDSDGSFFLYSKLTVDKSRWQQGNVFSCSVMHEALHNRYTQKSLSLSP chain 3: DIVMTQSPLSLPVTPGEPASISCRSSQSLVHSNRNTYLHWYQQKPGQAPRLLIYKVSNRFSGVPDRFSGSGSGTDFTLKISRVEAEDVGVYYCGQGTQVPYTFGQGTKLEIKRTVAAPSVFIFPPSDEQLKSGTASVVCLLNNFYPREAKVQWKVDNALQSGNSQESVTEQDSKDSTYSLSSTLTLSKADYEKHKVYACEVTHQGLSSPVTKSFNRGEC | – | – | – | 90 nM

Other lines, results leading:

Row | ELISA signal, free CD3e 0 pmol/well [1] | ELISA signal, free CD3e 125 pmol/well [2] | Signal decrease [3] | Kd [4] | Binder
6 | – | – | – | 71 nM | NNS6f50 (CE115HA340 with LTGGLG inserted between Kabat positions 99 and 100), one-arm antibody (antibody) chain 1: QVQLVESGGGLVQPGRSLRLSCAASGFTFSNAWMHWVRQAPGKGLEWVAQIKDKSNNYATYYAESVKGRFTISRDDSKNSIYLQMNSLKTEDTAVYYCRYVHYAALTGGLGYYGVDAWGQGTTVTVSSASTKGPSVFPLAPSSKSTSGGTAALGCLVKDYFPEPVTVSWNSGALTSGVHTFPAVLQSSGLYSLSSVVTVPSSSLGTQTYICNVNHKPSNTKVDKKVEPKSCDKTHTCPPCPAPEAAGGPSVFLFPPKPKDTLMISRTPEVTCVVVDVSHEDPEVKFNWYVDGVEVHNAKTKPREEQYASTYRVVSVLTVLHQDWLNGKEYKCKVSNKALPAPIEKTISKAKGQPREPQVYTLPPSRCELTKNQVSLSCAVKGFYPSDIAVEWESNGQPENNYKTTPPVLDSDGSFFLVSKLTVDKSRWQQGNVFSCSVMHEALHNHYTQKSLSLSPDYKDDDDK chain 2: EPKSSDKTHTCPPCPAPELLGGPSVFLFPPKPKDTLMISRTPEVTCVVVDVSHEDPEVKFNWYVDGVEVHNAKTKPREEQYNSTYRVVSVLTVLHQDWLNGKEYKCKVSNKALPAPIEKTISKAKGQPREPQVCTLPPSRDELTKNQVSLWCLVKGFYPSDIAVEWESNGQPENNYKTTPPVLDSDGSFFLYSKLTVDKSRWQQGNVFSCSVMHEALHNRYTQKSLSLSP chain 3: DIVMTQSPLSLPVTPGEPASISCRSSQSLVHSNRNTYLHWYQQKPGQAPRLLIYKVSNRFSGVPDRFSGSGSGTDFTLKISRVEAEDVGVYYCGQGTQVPYTFGQGTKLEIKRTVAAPSVFIFPPSDEQLKSGTASVVCLLNNFYPREAKVQWKVDNALQSGNSQESVTEQDSKDSTYSLSSTLTLSKADYEKHKVYACEVTHQGLSSPVTKSFNRGEC
7 | 99400 | 98100 | 1.26% | – | anti-human CD137 antibody described in WO2005/035584A1 (abbreviated as B) (antibody, V domains shown, also called control anti-CD137 antibody) VH: QVQLQQWGAGLLKPSETLSLTCAVYGGSFSGYYWSWIRQSPEKGLEWIGEINHGGYVTYNPSLESRVTISVDTSKNQFSLKLSSVTAADTAVYYCARDYGPGNYDWYFDLWGRGTLVTVSS VL: EIVLTQSPATLSLSPGERATLSCRASQSVSSYLAWYQQKPGQAPRLLIYDASNRATGIPARFSGSGSGTDFTLTISSLEPEDFAVYYCQQRSNWPPALTFGGGTKVEIK
8 | 4800 | 1880 | 60.8% | – | dBBDu174 (antibody, human IgG1, V domains shown, IgG: VH joined to human IgG1 CH1-Fc, GLS3000 as light chain) VH: QVQLVESGGGLVQPGRSLRLSCAASGFTFSSAWMHWVRQAPGKGLEWVAQIKDRASAYNAYYAESVKGRFTISRDDSKNSIYLQMNSLKTEDTAVYYCRYVHYPSYVSFLPYYGVDAWGQGTTVTVSS VL: DIVMTQSPLSLPVTPGEPASISCRSSQSLVHSNRNTYLHWYQQKPGQAPRLLIYKVSNRFSGVPDRFSGSGSGTDFTLKISRVEAEDVGVYYCGQGTQVPYTFGQGTKLEIK
9 | 61400 | 2060 | 96.7% | – | dBBDu125 (antibody, human IgG1, V domains shown, IgG: VH joined to human IgG1 CH1-Fc, GLS3000 as light chain; also called DXDU01_3_#019; DXDU01_3 #019) VH: QVQLVESGGGLVQPGRSLRLSCAASGFTFSIAWMHWVRQAPGKGLEWVAQIKDKVNGYTAYYAESVKGRFTISRDDSKNSIYLQMNSLKTEDTAVYYCRYVHYAAYYDVLGYGGVDAWGQGTTVTVSS VL: DIVMTQSPLSLPVTPGEPASISCRSSQSLVHSNRNTYLHWYQQKPGQAPRLLIYKVSNRFSGVPDRFSGSGSGTDFTLKISRVEAEDVGVYYCGQGTQVPYTFGQGTKLEIK
